The results in this text go back to PMC4538822, “Ribosomal protein L10(L12)4 autoregulates expression of the Bacillus subtilis rplJL operon by a transcription attenuation mechanism”.

For series [1], the target named is T1, L10(L12)4 complex (ribosomal proteins L10 and L12) (Bacillus subtilis (source strain of the …, UniProt P42923;P02394 1-166;1-123)).
T1 sequence 1: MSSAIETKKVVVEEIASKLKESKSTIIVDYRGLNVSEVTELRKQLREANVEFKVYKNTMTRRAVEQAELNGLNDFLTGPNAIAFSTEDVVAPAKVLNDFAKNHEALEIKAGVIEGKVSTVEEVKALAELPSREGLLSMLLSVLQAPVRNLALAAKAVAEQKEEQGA
T1 sequence 2: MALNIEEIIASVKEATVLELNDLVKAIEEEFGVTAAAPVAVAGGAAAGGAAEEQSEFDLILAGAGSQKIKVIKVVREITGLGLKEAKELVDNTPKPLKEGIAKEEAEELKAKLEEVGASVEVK
The experiment in a line: 3' boundary analysis (native gel EMSA); 1 or 3 uM L10(L12)4; Filter binding: 30 mM Tris-HCl pH 7.6, 175 mM KCl, 3 mM MgCl2, 10% glycerol, 0.2 mg/ml yeast RNA, 50 ug/ml BSA, 0.01 nM RNA, 37 C 30 min; in-line probing: 50 mM Tris-HCl pH 8.3, 20 mM MgCl2, 100 mM KCl, 15% glycerol, 25 C 40 h; boundary: 37 C 30 min. The following applies: protein: recombinant, tags: N-terminal His6 on L10, copies: 1;4, label: 5' 32P, AAT structure complete (3' end of AAT at +72).

Series [2] concerns the target T1, L10(L12)4 complex (ribosomal proteins …). The experiment in a line: filter binding; 3 mM Mg2+; yeast RNA competitor 0.2 mg/ml; apparent Kd; Filter binding: 30 mM Tris-HCl pH 7.6, 175 mM KCl, 3 mM MgCl2, 10% glycerol, 0.2 mg/ml yeast RNA, 50 ug/ml BSA, 0.01 nM RNA, 37 C 30 min; in-line probing: 50 mM Tris-HCl pH 8.3, 20 mM MgCl2, 100 mM KCl, 15% glycerol, 25 C 40 h; boundary: 37 C 30 min. The following applies: protein: recombinant; tags: N-terminal His6 on L10; L12 native; copies: 1;4; label: 5' 32P; anti-antiterminator (AAT) structure with kink-turn.

B1: rplJL leader RNA +13 to +76 (3' boundary, bound) (structured_RNA)
RNA: AAUAUCAUUUAUACCGUAGACAGUAGGGGCCUAACCGCUUAAUUAUCCUACCGAGGUGUAUAUU
As for B1, the binding result in series [1] is on record as “binds”.

B2: rplJL leader RNA +13 to +118 (structured_RNA)
RNA: AAUAUCAUUUAUACCGUAGACAGUAGGGGCCUAACCGCUUAAUUAUCCUACCGAGGUGUAUAUUAUCACAGCUAUUACGUUACGUAUGCUUGUAUAUACAGCCUCC
B2: in series [2], the Kd stood at 33 ± 10 nM.
